Consider one molecule from patent US9364516B2, “Treatment of fibrosis-related disorders using fibronectin binding proteins and polypeptides” (priority 2010, dated 2016).

One series deals with laminin. The experiment in a line: ELISA binding of pUR4 to ECM proteins: laminin. Particulars: plates coated 10 μg/mL, FIG. 7. As to the method:
(§1) FIG. 7 is a graph depicting the binding of pUR4 to ECM Proteins. 96-well plates were coated with 10 μg/mL type I collagen (COL), denatured type I collagen (dCOL), fibronectin (FN), laminin (LN), vitronectin (VN), or fibrinogen (FG) at 4° C. overnight. pUR4 was added to the wells and serially diluted. Bound pUR4 was detected as described herein. Measurements were done at 405 nm on a Wallac 1420 multilabel counter. Data represents the average of duplicate determinations, and the error bars the range.
(§2) 96-well tissue culture plates were coated with 10 μg/mL type I collagen, fibronectin, laminin, fibrinogen, or vitronectin overnight at 4° C. Denatured collagens were generated as described (George et al., “Fibronectins are Essential for Heart and Blood Vessel Morphogenesis but are Dispensable for Initial Specification of Precursor Cells,” Blood 90:3073-3081 (1997), which is hereby incorporated by reference in its entirety). Plates were blocked with 1% bovine serum albumin (BSA) in Tris buffered saline (TBS) for 1 hour, then washed with TBS. pUR4 was serially diluted into coated wells, then incubated at room temperature for 90 min. Wells were washed with TBS containing 0.1% Tween 20. […] After washing, peroxidase activity was quantified by using 2,2′-azino-bis-(3-ethylbenthiazoline-[…]). […]
Background: An ELISA detects its analyte on a solid surface through an enzyme-linked reagent.

Another series concerns left carotid artery. The experiment in a line: Detection of Texas-Red conjugated peptides in vessel wall. In kind it is in vivo, mouse. To be noted: Texas-Red conjugate 20 μM in pluronic gel, periadventitial. As to the method:
FIGS. 8A-8E provide visualization of pUR4 in the vessel wall. Texas-Red (TR) conjugated pUR4 (20 μM) was embedded in pluronic gel and periadventitially delivered to the left carotid artery following ligation surgery as described infra. The right carotid artery from the same animal was used as a control. Mice were sacrificed 1, 3, and 7 days after surgery, and the carotid arteries were harvested and flash frozen. Longitudinal sections (20 μm) were immunostained with an anti-TR antibody. Representative images from the right common carotid artery (FIG. 8A), and left common carotid artery of 1 day (FIG. 8B), 3 day (FIG. 8C), and 7 day (FIG. 8D) animals are shown. The percentage area which is TR (+) (FIG. 8E) was assessed in the media of the vessels. Media=M; adventitia=Ad; lumen=L. Bar, 20 μm.
pUR4 and III-11C were conjugated to Texas-Red, as per the manufacturer's instructions (Molecular Probes/Invitrogen). 20 μM Texas-Red (TR) conjugated proteins were embedded in pluronic gel and applied to the vessel following ligation surgery. […] For quantitatively evaluating the efficacy of peptide delivery to the common carotid artery, 15-18 fields of view in the media from 2-3 mice at each time point were analyzed. The TR (+) areas were quantitated using an automated programmed segmentation procedure in ImagePro. The percentage of TR (+) area to the total medial area was determined.

The test system of series [1] is cell spreading or adhesion to collagen or fibronectin. Particulars: cited from earlier work.
In the next series the target is T1, fibrinogen (Homo sapiens, UniProt P02671+P02675+P02679).
T1 construct: purchased Enzyme Research Laboratories (South Bend, Ind.)
T1 sequence (P02671 20-629 limits assumed): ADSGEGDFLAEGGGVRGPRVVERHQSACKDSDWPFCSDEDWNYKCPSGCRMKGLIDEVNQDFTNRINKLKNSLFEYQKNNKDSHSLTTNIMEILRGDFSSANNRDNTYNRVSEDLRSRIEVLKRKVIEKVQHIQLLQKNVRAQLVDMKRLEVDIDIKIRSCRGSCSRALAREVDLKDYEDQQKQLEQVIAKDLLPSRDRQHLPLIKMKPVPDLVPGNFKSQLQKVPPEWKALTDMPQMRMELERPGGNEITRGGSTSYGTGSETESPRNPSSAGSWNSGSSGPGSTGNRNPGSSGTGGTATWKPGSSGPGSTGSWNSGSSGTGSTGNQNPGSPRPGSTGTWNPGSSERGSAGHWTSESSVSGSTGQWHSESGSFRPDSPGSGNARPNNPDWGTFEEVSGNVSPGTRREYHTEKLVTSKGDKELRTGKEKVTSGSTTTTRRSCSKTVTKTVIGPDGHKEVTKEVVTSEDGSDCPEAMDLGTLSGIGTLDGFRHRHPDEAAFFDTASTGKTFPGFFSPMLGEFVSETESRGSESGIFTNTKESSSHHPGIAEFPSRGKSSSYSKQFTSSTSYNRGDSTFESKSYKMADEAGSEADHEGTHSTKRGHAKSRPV
T1 sequence (P02675 31-491): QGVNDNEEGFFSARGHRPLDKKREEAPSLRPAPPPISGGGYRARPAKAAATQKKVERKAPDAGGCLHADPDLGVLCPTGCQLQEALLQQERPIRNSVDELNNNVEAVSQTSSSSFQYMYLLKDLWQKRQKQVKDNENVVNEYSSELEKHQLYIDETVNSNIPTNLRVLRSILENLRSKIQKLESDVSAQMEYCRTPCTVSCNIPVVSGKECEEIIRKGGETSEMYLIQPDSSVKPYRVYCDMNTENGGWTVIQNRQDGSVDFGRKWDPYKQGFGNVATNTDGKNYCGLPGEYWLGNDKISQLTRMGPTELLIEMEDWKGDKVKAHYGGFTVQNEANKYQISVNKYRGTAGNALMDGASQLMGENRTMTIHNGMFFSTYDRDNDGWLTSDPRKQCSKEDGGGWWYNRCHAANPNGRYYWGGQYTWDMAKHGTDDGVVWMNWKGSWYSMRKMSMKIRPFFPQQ
T1 sequence (P02679 27-453): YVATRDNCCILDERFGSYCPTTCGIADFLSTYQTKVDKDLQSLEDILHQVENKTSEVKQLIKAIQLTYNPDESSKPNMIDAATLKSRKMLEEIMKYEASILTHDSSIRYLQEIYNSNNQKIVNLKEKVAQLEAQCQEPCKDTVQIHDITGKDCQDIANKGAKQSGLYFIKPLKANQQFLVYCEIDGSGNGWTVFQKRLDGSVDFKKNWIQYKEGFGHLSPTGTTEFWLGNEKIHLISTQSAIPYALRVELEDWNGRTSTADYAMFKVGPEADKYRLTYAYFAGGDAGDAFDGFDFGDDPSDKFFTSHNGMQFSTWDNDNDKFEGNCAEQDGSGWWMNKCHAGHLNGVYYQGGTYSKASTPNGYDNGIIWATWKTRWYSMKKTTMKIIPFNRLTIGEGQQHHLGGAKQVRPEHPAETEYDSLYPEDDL
Description: ELISA binding of pUR4 to ECM proteins: fibrinogen. Particulars: plates coated 10 μg/mL, FIG. 7. As to the method:
as §1, §2

In another series the target is fibronectin (Homo sapiens, UniProt P02751). To be noted: cited from earlier work.
Sequence of fibronectin (P02751 32-2477): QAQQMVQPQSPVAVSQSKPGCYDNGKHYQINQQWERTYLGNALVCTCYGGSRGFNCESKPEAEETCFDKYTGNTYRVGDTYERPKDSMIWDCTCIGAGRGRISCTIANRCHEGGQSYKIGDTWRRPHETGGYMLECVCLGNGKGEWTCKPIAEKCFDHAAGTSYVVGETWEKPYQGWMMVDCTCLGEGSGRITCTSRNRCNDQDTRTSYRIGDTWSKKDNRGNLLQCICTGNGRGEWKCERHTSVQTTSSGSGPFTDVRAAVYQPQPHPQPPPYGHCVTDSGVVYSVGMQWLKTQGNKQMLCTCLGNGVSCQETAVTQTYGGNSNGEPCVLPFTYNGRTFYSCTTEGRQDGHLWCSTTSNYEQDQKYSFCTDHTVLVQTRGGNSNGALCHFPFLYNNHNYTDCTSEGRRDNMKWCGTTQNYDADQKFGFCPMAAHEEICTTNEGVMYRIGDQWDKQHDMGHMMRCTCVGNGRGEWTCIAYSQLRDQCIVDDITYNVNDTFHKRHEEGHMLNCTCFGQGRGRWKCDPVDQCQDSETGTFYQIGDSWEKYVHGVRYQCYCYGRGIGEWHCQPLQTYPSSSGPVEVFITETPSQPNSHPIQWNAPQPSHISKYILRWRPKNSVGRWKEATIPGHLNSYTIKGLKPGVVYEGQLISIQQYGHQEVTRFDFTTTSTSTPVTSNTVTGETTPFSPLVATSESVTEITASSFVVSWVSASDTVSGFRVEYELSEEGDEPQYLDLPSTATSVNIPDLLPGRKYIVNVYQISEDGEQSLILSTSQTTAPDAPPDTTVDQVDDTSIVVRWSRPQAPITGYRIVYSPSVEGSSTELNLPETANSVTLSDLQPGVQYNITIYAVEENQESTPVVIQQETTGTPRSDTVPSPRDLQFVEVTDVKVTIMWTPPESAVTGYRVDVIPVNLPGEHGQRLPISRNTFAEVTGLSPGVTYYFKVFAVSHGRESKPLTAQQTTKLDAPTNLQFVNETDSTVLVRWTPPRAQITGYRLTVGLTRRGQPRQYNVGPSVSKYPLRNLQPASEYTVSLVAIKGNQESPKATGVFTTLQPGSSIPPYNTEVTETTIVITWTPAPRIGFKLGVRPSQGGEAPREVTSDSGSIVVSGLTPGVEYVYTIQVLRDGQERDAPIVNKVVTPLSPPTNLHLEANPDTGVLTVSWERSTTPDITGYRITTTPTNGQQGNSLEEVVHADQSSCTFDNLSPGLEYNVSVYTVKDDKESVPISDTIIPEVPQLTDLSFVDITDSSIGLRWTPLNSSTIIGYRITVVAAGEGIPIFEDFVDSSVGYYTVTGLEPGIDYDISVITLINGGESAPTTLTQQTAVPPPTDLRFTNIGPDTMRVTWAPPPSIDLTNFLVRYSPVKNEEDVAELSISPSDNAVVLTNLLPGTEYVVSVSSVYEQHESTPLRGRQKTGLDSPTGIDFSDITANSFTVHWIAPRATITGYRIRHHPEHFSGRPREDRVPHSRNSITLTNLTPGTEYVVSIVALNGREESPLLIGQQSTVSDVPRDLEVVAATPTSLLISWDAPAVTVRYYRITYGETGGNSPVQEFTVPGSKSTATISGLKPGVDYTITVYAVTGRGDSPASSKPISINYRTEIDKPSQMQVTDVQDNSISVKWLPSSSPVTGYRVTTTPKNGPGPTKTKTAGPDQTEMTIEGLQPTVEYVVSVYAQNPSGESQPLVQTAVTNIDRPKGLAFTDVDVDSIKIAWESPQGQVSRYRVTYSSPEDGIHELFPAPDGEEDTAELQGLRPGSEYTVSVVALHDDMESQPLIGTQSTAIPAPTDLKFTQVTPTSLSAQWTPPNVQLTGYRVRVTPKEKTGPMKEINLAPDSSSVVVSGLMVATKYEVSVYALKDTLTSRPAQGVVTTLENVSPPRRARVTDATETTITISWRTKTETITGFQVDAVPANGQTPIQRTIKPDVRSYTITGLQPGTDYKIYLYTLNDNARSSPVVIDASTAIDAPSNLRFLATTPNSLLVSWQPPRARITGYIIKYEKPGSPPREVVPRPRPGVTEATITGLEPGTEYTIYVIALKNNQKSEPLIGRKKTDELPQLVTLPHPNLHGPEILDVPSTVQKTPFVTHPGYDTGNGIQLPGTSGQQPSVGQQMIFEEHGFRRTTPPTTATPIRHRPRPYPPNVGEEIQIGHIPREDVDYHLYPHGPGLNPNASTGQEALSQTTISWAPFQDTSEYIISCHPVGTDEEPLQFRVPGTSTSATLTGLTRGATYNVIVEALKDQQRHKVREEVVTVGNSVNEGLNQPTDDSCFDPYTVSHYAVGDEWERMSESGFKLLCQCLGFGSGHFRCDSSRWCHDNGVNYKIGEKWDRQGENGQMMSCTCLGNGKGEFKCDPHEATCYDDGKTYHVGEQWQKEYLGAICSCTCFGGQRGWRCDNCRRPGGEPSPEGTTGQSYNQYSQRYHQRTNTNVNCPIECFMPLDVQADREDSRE

B1: pUR4: 49-mer peptide derived from the bacterial F1 adhesin, His tagged, SEQ ID NO:1; class I fibronectin polymerization inhibitor (peptide)
chain: MRGSHHHHHHGSKDQSPLAGESGETEYITEVYGNQQNPVDIDKKLPNETGFSGNMVETEDTKLN
modifications: His tag; Bacterial adhesin derived peptide pUR4
Take B1: the binding to laminin result in the series on laminin is “does not bind”. Further, the “peptide detected in the vessel wall (media and adventitia)” value in the series with left carotid artery (1 to 3 days after application) is “readily detected”. Further, in the series on left carotid artery (day 7), the “levels of the peptide in the vessel wall by day 7” value is given as “significantly reduced”. In addition, the “inhibition of cell spreading or adhesion to collagen or fibronectin” value in series [1] is listed as “does not inhibit”. Further, the binding to fibrinogen entry with fibrinogen is on record as “does not bind”. The binding to fibronectin result with fibronectin is recorded as “binds”.
